Patent US20230312724A1 (KADMON, published 2023)
Like-named read-outs stand apart in the source and are kept apart here.

Tests used:
mouse B7-H4-his [1] = biological target: T1, mouse B7-H4-his (mouse, UniProt Q7TSP5 25-257); assay: SPR (Biacore)
T1 construct: also called mB7-H4-his; mB7-H4-His; not shown: his tag
T1 sequence: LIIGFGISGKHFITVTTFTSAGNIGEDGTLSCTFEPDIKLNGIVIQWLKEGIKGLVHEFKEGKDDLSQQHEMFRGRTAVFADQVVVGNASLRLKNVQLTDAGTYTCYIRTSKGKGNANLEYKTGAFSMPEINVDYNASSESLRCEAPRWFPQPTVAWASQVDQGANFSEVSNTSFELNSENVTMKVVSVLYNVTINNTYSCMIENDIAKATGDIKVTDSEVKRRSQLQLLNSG

human B7-H4-Fc [2] = biological target: T2, human B7-H4-Fc (human); assay: SPR (Biacore)
T2 construct: also called hB7-H4-Fc; hB7-H4 Fc
T2 sequence (chain, as listed by the source): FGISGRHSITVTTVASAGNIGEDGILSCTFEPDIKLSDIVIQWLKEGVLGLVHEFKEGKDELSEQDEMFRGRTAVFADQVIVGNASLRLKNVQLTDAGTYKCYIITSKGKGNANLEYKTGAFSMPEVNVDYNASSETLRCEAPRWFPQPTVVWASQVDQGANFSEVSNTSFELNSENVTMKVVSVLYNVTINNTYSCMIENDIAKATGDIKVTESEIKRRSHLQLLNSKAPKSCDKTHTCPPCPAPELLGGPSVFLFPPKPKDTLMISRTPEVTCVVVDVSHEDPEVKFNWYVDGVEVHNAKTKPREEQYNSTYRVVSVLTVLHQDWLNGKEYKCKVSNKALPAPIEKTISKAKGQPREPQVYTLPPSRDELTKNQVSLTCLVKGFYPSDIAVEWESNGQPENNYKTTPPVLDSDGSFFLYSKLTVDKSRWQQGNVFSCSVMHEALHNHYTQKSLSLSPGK

human B7-H4-his [3] = biological target: T3, human B7-H4-his (human, UniProt Q7Z7D3 25-259); assay: SPR (Biacore)
T3 construct: also called hB7-H4-his; hB7-H4 his; not shown: his tag
T3 sequence: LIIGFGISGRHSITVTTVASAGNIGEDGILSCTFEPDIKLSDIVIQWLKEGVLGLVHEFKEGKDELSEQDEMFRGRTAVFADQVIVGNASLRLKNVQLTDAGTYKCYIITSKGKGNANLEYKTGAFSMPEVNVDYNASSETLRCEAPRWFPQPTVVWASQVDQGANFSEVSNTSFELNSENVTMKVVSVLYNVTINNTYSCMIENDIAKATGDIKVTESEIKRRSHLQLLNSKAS

[4] = biological target: T4, IgV domain of mouse B7-H4-Fc (mouse; human); assay: ELISA, coated mB7-H4 IgV domain
T4 construct: also called mB7-H4 IgV domain
T4 sequence (chain, as listed by the source): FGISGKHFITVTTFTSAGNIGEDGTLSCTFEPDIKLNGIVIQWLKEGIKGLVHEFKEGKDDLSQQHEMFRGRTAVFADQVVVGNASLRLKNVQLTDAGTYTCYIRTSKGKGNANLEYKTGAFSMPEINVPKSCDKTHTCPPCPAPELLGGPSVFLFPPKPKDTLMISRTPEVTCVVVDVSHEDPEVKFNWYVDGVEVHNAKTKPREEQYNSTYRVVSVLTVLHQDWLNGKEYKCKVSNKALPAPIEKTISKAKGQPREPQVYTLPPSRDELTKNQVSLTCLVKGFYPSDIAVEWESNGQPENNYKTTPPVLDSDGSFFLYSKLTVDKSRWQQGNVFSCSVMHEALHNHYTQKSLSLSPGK
Method: (§1) ELISA experiments were performed to determine binding to hB7-H4-Fc (FIG. 4A), hB7-H4-his (FIG. 4B), hB7-H4 IgV domain (FIG. 4C), and mB7-H4 IgV domain (FIG. 4D). Flow cytrometry experiments were performed to determine binding to CHO cells expressing hB7-H4 (FIG. 4E) or mB7-H4 (FIG. 4F). […] A cross-reactive IgV binding antibody was used as a control.
(§2) About 1-2 μg/ml of human or mouse B7-H4-Fc (or his-tagged) was immobilized on ELISA plates (Immuno 2HB, Thermo scientific, cat #3455) at 4° C. overnight. After blocking the plates with 3% PBS+milk, serial diluted antibodies were added to the blocked plates and incubated at RT for 1-1.5 h. After washing the plates with PBS-T (0.05%), horse radish peroxidase (HRP)-conjugated antibody targeting the hFab was added to the plate. Signals were developed by adding 3,3′,5,5′-Tetramethylbenzidine (TMB (followed 1N of H₂SO₄ to stop the reaction. The OD at 450 nm was read by ELISA plate reader (Infinite M1000 from TECAN). GraphPad from Prism was used to plot OD450 vs. antibody concentration curve and to calculate the EC50 values.

mouse B7-H4-Fc [5] = biological target: T5, mouse B7-H4-Fc (mouse; human); assay: ELISA, coated mB7-H4-Fc (title on the sheet: Binding to mB7H4-Fc)
T5 construct: also called mB7-H4-Fc; mB7-H4-hFc
T5 sequence (chain, as listed by the source): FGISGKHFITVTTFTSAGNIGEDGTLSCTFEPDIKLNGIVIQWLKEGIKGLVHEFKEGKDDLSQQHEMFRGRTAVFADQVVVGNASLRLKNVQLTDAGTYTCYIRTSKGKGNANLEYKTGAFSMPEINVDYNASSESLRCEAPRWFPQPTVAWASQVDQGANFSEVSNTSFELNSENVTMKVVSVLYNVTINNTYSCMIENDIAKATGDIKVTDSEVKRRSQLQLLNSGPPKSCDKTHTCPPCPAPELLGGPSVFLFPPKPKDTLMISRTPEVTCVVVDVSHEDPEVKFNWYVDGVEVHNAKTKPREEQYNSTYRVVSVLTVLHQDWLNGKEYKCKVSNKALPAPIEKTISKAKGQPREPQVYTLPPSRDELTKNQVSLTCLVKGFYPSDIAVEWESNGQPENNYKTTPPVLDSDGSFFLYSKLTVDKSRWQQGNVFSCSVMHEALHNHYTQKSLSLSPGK
Method: as §1, §2

[6] = biological target: T6, mB7-H4 (soluble mouse B7-H4, construct not named) (mouse, UniProt Q7TSP5 25-257, limits assumed); assay: summary of ELISA and flow cytometry
T6 sequence: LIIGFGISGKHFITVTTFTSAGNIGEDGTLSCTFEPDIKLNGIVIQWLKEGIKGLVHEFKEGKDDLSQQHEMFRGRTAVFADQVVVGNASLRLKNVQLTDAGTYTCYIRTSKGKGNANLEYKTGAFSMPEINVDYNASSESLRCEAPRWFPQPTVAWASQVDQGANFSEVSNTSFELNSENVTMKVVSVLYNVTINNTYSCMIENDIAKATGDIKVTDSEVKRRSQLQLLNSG

[7] = biological target: T7, mouse B7-H4 expressed on cells (mouse, UniProt Q7TSP5 25-257); assay: flow cytometry, mB7H4 stable cells (CHO)
T7 construct: also called cellular mB7-H4; mB7-H4/CT26
T7 sequence: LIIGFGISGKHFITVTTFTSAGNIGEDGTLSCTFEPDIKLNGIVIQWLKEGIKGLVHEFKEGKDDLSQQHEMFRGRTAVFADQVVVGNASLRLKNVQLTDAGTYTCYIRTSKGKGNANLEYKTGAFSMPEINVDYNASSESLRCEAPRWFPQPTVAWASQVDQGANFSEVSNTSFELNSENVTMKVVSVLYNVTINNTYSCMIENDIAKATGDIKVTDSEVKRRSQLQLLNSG
Method: as §1
(§3) Cells were harvested, washed once, and then re-suspended to the concentration of 1×10⁶ cells/ml in ice cold FACS Buffer. 25 μl of cell suspension was added to each well of a 96-well round-bottom microliter plate. Serially diluted antibodies or fusion proteins were added to each well and incubated for 1 hour at 4° C. Cells were washed three times by centrifugation at 1500 rpm for 5 minutes, and then stained with secondary antibody (1:200 dilution) for 30 min at 4° C. in the dark. Cells were washed once, re-suspended in 100 μl PBS buffer and then analyzed using Guava Flow Cytometry EasyCyte system.

human B7-H4-Fc [8] = biological target: T2, human B7-H4-Fc; assay: ELISA, coated hB7-H4-Fc
Method: as §1, §2

[9] = biological target: T8, IgV domain of human B7-H4-Fc (human); assay: ELISA on coated IgV domain of hB7-H4
T8 construct: also called hB7-H4 IgV domain
T8 sequence (chain, as listed by the source): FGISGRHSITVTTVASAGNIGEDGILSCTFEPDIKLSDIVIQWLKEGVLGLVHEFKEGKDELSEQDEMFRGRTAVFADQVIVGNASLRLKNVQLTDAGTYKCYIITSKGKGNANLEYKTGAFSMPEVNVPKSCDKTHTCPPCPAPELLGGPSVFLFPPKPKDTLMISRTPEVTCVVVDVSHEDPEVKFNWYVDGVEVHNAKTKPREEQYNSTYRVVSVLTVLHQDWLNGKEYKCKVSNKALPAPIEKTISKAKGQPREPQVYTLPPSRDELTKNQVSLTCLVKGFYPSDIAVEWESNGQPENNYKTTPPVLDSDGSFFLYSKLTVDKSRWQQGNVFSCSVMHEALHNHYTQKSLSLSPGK
Method: as §2

[10] = biological target: T9, hB7-H4 (soluble human B7-H4, construct not named) (human, UniProt Q7Z7D3 25-259, limits assumed); assay: ELISA, hB7-H4
T9 construct: also called soluble hB7-H4
T9 sequence: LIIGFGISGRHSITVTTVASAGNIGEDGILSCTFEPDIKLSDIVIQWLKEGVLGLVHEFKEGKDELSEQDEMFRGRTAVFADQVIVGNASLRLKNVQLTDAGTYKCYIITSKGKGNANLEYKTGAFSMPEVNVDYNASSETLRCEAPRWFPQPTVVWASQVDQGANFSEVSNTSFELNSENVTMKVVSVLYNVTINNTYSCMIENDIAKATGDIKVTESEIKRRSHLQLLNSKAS
Method: as §2

mouse B7-H4-his [11] = biological target: T1, mouse B7-H4-his; assay: ELISA on coated mB7-H4-his
Method: as §2

[12] = biological target: T10, IgC domain of human B7-H4-Fc (human); assay: ELISA, coated hB7-H4 IgC domain
T10 construct: also called hB7-H4 IgC domain
T10 sequence (chain, as listed by the source): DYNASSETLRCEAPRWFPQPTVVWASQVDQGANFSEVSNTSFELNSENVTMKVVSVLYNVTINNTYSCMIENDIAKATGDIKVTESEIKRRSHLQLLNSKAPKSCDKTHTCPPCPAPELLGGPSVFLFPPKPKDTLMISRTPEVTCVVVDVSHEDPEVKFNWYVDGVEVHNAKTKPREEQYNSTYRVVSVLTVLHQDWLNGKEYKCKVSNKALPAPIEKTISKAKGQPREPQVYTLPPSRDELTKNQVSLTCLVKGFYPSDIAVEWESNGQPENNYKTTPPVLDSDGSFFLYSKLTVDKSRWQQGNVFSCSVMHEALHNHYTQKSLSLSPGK

[13] = biological target: T11, IgC domain of mouse B7-H4-Fc (mouse; human); assay: ELISA, coated mB7-H4 IgC domain
T11 construct: also called mB7-H4 IgC domain
T11 sequence (chain, as listed by the source): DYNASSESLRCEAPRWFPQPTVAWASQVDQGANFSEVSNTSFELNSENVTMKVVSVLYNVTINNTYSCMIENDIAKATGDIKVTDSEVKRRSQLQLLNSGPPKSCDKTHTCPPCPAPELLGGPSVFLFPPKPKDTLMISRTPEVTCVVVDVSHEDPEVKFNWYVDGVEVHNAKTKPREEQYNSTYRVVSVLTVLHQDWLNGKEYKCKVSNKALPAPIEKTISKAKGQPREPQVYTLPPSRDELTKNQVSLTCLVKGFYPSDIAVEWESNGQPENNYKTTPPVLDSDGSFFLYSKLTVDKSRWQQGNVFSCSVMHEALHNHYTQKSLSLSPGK

[14] = biological target: T9, hB7-H4 (soluble human B7-H4, construct …); assay: ELISA, hB7-H4; remark: listed apart in the source
Outline: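 Each antibody, diluted in series, was incubated 1-1.5 h at RT on milk-blocked wells coated with ~1-2 μg/ml human or mouse B7-H4-Fc (or his-tagged) at 4° C overnight. An HRP anti-human Fab with TMB gave the OD450 signal.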

[15] = biological target: T4, IgV domain of mouse B7-H4-Fc; assay: ELISA, coated mB7-H4 IgV domain; remark: listed apart in the source
[16] = biological target: T12, human B7-H4 expressed on cells (human, UniProt Q7Z7D3 25-282); assay: flow cytometry, SK-BR-3 cells
T12 construct: Transfected CHO cells or tumor cell lines that carry hB7-H4; also called cellular hB7-H4
T12 sequence: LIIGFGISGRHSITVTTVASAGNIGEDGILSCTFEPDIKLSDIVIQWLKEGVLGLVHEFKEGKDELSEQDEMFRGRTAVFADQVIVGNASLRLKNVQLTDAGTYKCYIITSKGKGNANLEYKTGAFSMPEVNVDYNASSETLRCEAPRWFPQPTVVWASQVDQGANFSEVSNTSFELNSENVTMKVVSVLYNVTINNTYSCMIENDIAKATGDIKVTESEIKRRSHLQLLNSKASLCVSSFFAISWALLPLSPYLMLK

[17] = biological target: T7, mouse B7-H4 expressed on cells; assay: flow cytometry, CT26 cells expressing mB7-H4
[18] = biological target: T8, IgV domain of human B7-H4-Fc; assay: ELISA, coated hB7-H4 IgV domain
[19] = biological target: T12, human B7-H4 expressed on cells; assay: flow cytometry, MDA-MB-468 cells
Method: as §3

mouse B7-H4-Fc [20] = biological target: T5, mouse B7-H4-Fc; assay: ELISA on coated mB7-H4-Fc
Method: as §2

human B7-H4-his [21] = biological target: T3, human B7-H4-his; assay: ELISA on coated hB7-H4-his
Method: as §2

[22] = biological target: T9, hB7-H4 (soluble human B7-H4, construct …); assay: SPR (Biacore)
human B7-H4-Fc [23] = biological target: T2, human B7-H4-Fc; assay: SPR (Biacore); remark: listed apart in the source
Outline: (§4)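 Ligands (human B7-H4-Fc, human B7-H4-his, mouse B7-H4-Fc) were amine-coupled to CM5 chips at 50-100 RU. Analyte was injected at 100 nM to 0.1 nM in HBS-EP, pH 7.4, at 25 °C, with 180 s association and 1000 or 1200 s dissociation. Kinetics were fitted to a 1:1 Langmuir model.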

[24] = biological target: T9, hB7-H4 (soluble human B7-H4, construct …); assay: SPR (Biacore); remark: listed apart in the source
Outline: as §4

human B7-H4-his [25] = biological target: T3, human B7-H4-his; assay: SPR (Biacore); remark: listed apart in the source
Outline: as §4

[26] = biological target: T12, human B7-H4 expressed on cells; assay: flow cytometry, MX-1 cells
Method: as §3

[27] = biological target: T12, human B7-H4 expressed on cells; assay: flow cytometry, SK-BR-3 cells; remark: listed apart in the source
Outline: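 Cells at 1×10⁶ cells/ml in ice-cold FACS buffer incubated with serially diluted antibodies or fusion proteins for 1 h at 4 °C. After three washes, secondary antibody (1:200) applied 30 min at 4 °C in the dark; binding read by flow cytometry.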

human B7-H4-Fc [28] = biological target: T2, human B7-H4-Fc; assay: ELISA on coated hB7-H4-Fc
Method: as §2

B1: 4H6/4H6 (antibody, human IgG1, V domains shown)
VH: EVQLLESGGGLVQPGGSLRLSCAASGFTFSSYGMHWVRQAPGKGLEWVSGISGSGGSTYYADSVKGRFTISRDNSKNTLYLQMNSLRAEDTAVYYCARTQWRASLDPWGQGTLVNVSS
VL: DIQMTQSPSSLSASVGDRVTITCRASQDISYWLAWYQQKPGKAPKLLIYGASTLQSGVPSRFSGSGSGTDFTLTISSLQPEDFATYYCQQTTMSPYTFGQGTKVEIK
binding result (mouse B7-H4-his [1]): no binding | Kd (human B7-H4-Fc [2]): 2.86 nM | Kd (human B7-H4-his [3]): 4 nM | binding result [4]: no binding | binding result (mouse B7-H4-Fc [5]): no binding (tested: log 0.3 ug/ml (about 2 ug/ml)) | binding result [6]: no binding | binding result [7]: no binding | EC50 (read off the curve) (human B7-H4-Fc [8]): ~0.01 µg/mL

B2: 3F2/50A10 (antibody, human IgG1, V domains shown)
VH: QVQLVQSGAEVKKPGASVKVSCKASGYTFTAQYMYWVRQAPGQGLEWMGRINPTSGNTVYAQKLQGRVTMTRDTSTSTVYMELSSLRSEDTAVYYCARGINWFDPWGQGTLVTVSS
VL: DIQMTQSPSSLSASVGDRVTITCQASQDISNYINWYQQKPGKAPKLLIYAASRLQSGVPSRFSGSGSGTDFTLTISSLQPEDFATYYCQQSYRSPFTFGQGTKLEIK
EC50 (read off the curve) [9]: ~0.08 nM | EC50 [10]: 0.082 nM | binding result (mouse B7-H4-his [11]): no binding (tested: 10 nM) | binding result [12]: no binding (tested: log 1 nM (10 nM)) | binding result [13]: no binding (tested: log 1 nM (10 nM)) | EC50 [14]: 0.046 nM | binding result [15]: no binding (tested: log 1 nM (10 nM)) | EC50 [16]: 1.18 nM | binding result [17]: no binding (tested: log 2 nM (100 nM)) | EC50 (read off the curve) [18]: ~0.1 nM | EC50 [19]: 0.416 nM | binding result (mouse B7-H4-Fc [20]): no binding (tested: 10 nM) | EC50 (read off the curve) (human B7-H4-his [21]): ~0.1 nM | Kd [22]: 0.0454 nM | Kd (human B7-H4-Fc [23]): 0.0433 nM | Kd [24]: 0.0385 nM | Kd (human B7-H4-his [25]): 0.0155 nM | EC50 [26]: 0.12 nM | EC50 [27]: 0.41 nM | EC50 (read off the curve) (human B7-H4-Fc [28]): ~0.07 nM
